B1: CyPPO19 I408R + F360M: variant of CyPPO19 PPO protein (SEQ ID NO: 1) (protein)
chain: MSEVDVAIVGGGLSGLSLAWRLQQSAPQYSVVLLEASDRLGGNITTQTAEGFVWELGPNSFAPTPALLQLIAEVGLQSELIRGDRHLPRYIYWRGQLYPLQPTRPLALATSNLLSPWGKVRAALGALGFVPPYLGSGDESVNSFFRRHLGQEVAERLVAPFVSGVYAGDPQQLSAAAAFRRIAQLEKLGGGLIAGALHLRRQQAPKPKPPTSVQMRPGELGSFKEGLAALPRAIAQQLKAPIHLQTPVQEITPDPKGGYLLRSGEQTWRARSVVLATPAYQTAELVAPFQPAIARVLATIPYPTVACVVLAYPAGLGRSVRPGFGVLIPRSQGIRTLGTIWSSCLFPQRTPAGWQVFTSMIGGATDPDLASLSEEAIVQQVQQDLNRLLDLPAAKARLLGMKVWRRARPQYMVGYPEQWQQVTHALSQTPGLFLCSNYAEGVALGDRVEHGNRTAAAVAAYLSGGQP
modifications: Synthetic_PPO of Thermosynechococcus elongatus PKUAC-SCTE542 (comprising GenBank No. CP032152.1)
B2: CyPPO19 I408W + F360V: variant of CyPPO19 PPO protein (SEQ ID NO: 1) (protein)
chain: MSEVDVAIVGGGLSGLSLAWRLQQSAPQYSVVLLEASDRLGGNITTQTAEGFVWELGPNSFAPTPALLQLIAEVGLQSELIRGDRHLPRYIYWRGQLYPLQPTRPLALATSNLLSPWGKVRAALGALGFVPPYLGSGDESVNSFFRRHLGQEVAERLVAPFVSGVYAGDPQQLSAAAAFRRIAQLEKLGGGLIAGALHLRRQQAPKPKPPTSVQMRPGELGSFKEGLAALPRAIAQQLKAPIHLQTPVQEITPDPKGGYLLRSGEQTWRARSVVLATPAYQTAELVAPFQPAIARVLATIPYPTVACVVLAYPAGLGRSVRPGFGVLIPRSQGIRTLGTIWSSCLFPQRTPAGWQVFTSVIGGATDPDLASLSEEAIVQQVQQDLNRLLDLPAAKARLLGMKVWRRAWPQYMVGYPEQWQQVTHALSQTPGLFLCSNYAEGVALGDRVEHGNRTAAAVAAYLSGGQP
modifications: Synthetic_PPO of Thermosynechococcus elongatus PKUAC-SCTE542 (comprising GenBank No. CP032152.1)

Tested on: PPO-deficient BT3 E. coli (ΔPPO)
Test: PPO-inhibiting herbicide tolerance test of PPO variants in E. coli (growth on herbicide-containing LB agar)
Type: cell-based
Details: CyPPO19 variants in BT3 (ΔPPO) E. coli; LB agar with 0 to 2,000 μM herbicide, 37° C., dark, 16-20 hours
How it was run: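 PPO-deficient BT3 E. coli expressing each variant from pET303 were diluted to OD600=0.5, then 10-fold serially, and spotted on LB-ampicillin agar with 0 to 2,000 μM herbicide. After 16-20 h at 37° C. in the dark, growth relative to wild type was scored from '−' (equivalent) to '+' per 10-fold resistance, max '+++++'.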

Molecule | tolerance level relative to wild type, Carfentrazone | tolerance level relative to wild type, Flumioxazin | tolerance level relative to wild type, Fomesafen | tolerance level relative to wild type, Oxyfluorfen | tolerance level relative to wild type, Saflufenacil | tolerance level relative to wild type, Sulfentrazone | tolerance level relative to wild type, Tiafenacil
B1 | + (‘+’ per each 10-fold resistance) | ++ (‘+’ per each 10-fold resistance) | + (‘+’ per each 10-fold resistance) | + (‘+’ per each 10-fold resistance) | ++ (‘+’ per each 10-fold resistance) | + (‘+’ per each 10-fold resistance) | +++ (‘+’ per each 10-fold resistance)
B2 | + (‘+’ per each 10-fold resistance) | ++++ (‘+’ per each 10-fold resistance) | +++ (‘+’ per each 10-fold resistance) | ++ (‘+’ per each 10-fold resistance) | +++ (‘+’ per each 10-fold resistance) | +++ (‘+’ per each 10-fold resistance) | ++++ (‘+’ per each 10-fold resistance)
